In article PMC8158039:

Target: Recombinant human neonatal Fc receptor (FcRn) (human) (UniProt P55899)
Experiment: SPR

Chain of UniProt P55899 (P55899 24-365, chain 1 of 2): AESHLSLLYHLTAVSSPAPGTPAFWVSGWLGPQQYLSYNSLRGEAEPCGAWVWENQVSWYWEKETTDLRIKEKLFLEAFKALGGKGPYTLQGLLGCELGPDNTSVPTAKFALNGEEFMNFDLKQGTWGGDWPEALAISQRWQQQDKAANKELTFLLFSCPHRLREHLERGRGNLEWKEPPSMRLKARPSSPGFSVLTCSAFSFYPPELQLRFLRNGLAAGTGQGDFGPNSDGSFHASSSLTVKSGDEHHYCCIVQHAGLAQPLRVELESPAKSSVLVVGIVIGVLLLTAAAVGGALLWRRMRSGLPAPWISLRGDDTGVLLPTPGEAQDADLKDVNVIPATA
Chain of UniProt P55899 (P61769 21-119, chain 2 of 2, further chain): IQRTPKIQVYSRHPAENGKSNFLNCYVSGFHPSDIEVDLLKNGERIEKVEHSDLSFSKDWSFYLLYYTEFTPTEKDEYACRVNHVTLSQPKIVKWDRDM

Etanercept (from UniProt P20333 23-257) (Fc fusion)
fold of KD against adalimumab: 4 fold
